We go through 54 sequences from the supplement of paper PMC11780869.

This data set deals with Bacillus subtilis. As to the kind of experiment: cleaved RNA product abundance (RNA/gDNA barcode ratio) relative to median wild-type variant (ratio to wild type); higher = more accumulation of the downstream cleavage product. The conditions noted are these: cleavage site: cggR-gapA (positions -7 to +36 mutated). The procedure, abridged: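 Cleaved product abundance is expressed as the RNA:gDNA barcode ratio per construct, scaled to the median construct carrying the unmutated site. The constructs were barcoded, mutagenized RNase Y cleavage-site windows in truncated aprE or tetM reporter mRNAs integrated into the B. subtilis chromosome. Cultures grew in LB at 37°C from OD600 0.0003 to 0.3 before cleaved RNA was gel-selected and barcode-sequenced.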

[1] abbreviates: experiment (reporter, strain, medium): exp 4a: truncated aprE reporter, strain BJT201 with 2% xylose (RNase J1 expressed).
Where [2] appears, read: experiment (reporter, strain, medium): exp 2b: truncated aprE reporter, strain BJT200.

As to “ACAGACGAAGGAGCCGCAGATAAGTTATTAAGGGATGAATAATCCCTCAATATAAATATCTCTCACTTATTTAAA”, the “cleaved RNA product abundance” value under setting [1] is 0.636. Same read-out and setting: the result for “ACAGACGAAGGAGCCGCATAAAAGTTATTAAGGCATGAATAATCCCTCAATATAAATATCTCTCACTTATTTAAA” reads 0.0533. With “ACAGACGAAGGAGCCGCATAGAAATTATTAAGGGATGAATAATCCCTCAATATAAATATCTCTCACTTATTTAAA”, the “cleaved RNA product abundance” value is, setting by setting: under setting [2], 0.834; under setting [1], 0.574. Take “ACAGACGAAGGAGCCGCATAGAACTTATTAAGGGATGAATAATCCCTCAATATAAATATCTCTCACTTATTTAAA”: the “cleaved RNA product abundance” value came to 0.341 under setting [2] and 0.499 under setting [1].

As for “ACAGACGAAGGAGCCGCATAGAAGTAATTAAGGGATGAATAATCCCTCAATATAAATATCTCTCACTTATTTAAA”, the “cleaved RNA product abundance” value under setting [1] turned out to be 0.356.

For “ACAGACGAAGGAGCCGCATAGAAGTTAATAAGGGATGAATAATCCCTCAATATAAATATCTCTCACTTATTTAAA”, the “cleaved RNA product abundance” value is, setting by setting: under setting [2], 0.239; under setting [1], 0.304. Taken in the same sequence, the figures for “ACAGACGAAGGAGCCGCATAGAAGTTACTAAGGGATGAATAATCCCTCAATATAAATATCTCTCACTTATTTAAA” were 0.24 and 0.221. Turning to “ACAGACGAAGGAGCCGCATAGAAGTTATAAAGGGATGAATAATCCCTCAATATAAATATCTCTCACTTATTTAAA”, the “cleaved RNA product abundance” value under setting [1] is 0.339.

As to “ACAGACGAAGGAGCCGCATAGAAGTTATCAAGGGATGAATAATCCCTCAATATAAATATCTCTCACTTATTTAAA”, the “cleaved RNA product abundance” value under setting [1] is 0.549. On to “ACAGACGAAGGAGCCGCATAGAAGTTATTAAAGGATGAATAATCCCTCAATATAAATATCTCTCACTTATTTAAA”, for which, under setting [1], the “cleaved RNA product abundance” value is 0.199. As for “ACAGACGAAGGAGCCGCATAGAAGTTATTAACGGATGAATAATCCCTCAATATAAATATCTCTCACTTATTTAAA”, the “cleaved RNA product abundance” value under setting [1] was found to be 0.193.

As for “ACAGACGAAGGAGCCGCATAGAAGTTATTAAGAGATGAATAATCCCTCAATATAAATATCTCTCACTTATTTAAA”, the “cleaved RNA product abundance” value under setting [1] amounted to 0.154. Consider “ACAGACGAAGGAGCCGCATAGAAGTTATTAAGCGATGAATAATCCCTCAATATAAATATCTCTCACTTATTTAAA”, for which the “cleaved RNA product abundance” value under setting [1] was 0.122. “ACAGACGAAGGAGCCGCATAGAAGTTATTAAGGAATGAATAATCCCTCAATATAAATATCTCTCACTTATTTAAA”: the “cleaved RNA product abundance” value was 0.082 under setting [2] and 0.135 under setting [1].

As to “ACAGACGAAGGAGCCGCATAGAAGTTATTAAGGAATGAATAATTCCTCAATATAAATATCTCTCACTTATTTAAA”, under setting [1], the “cleaved RNA product abundance” value is 0.893. Same read-out and setting: the result for “ACAGACGAAGGAGCCGCATAGAAGTTATTAAGGAATGAATATTCCCTCAATATAAATATCTCTCACTTATTTAAA” reads 0.263; that for “ACAGACGAAGGAGCCGCATAGAAGTTATTAAGGCATGAATAAGCCCTCAATATAAATATCTCTCACTTATTTAAA”, 0.143.

Take “ACAGACGAAGGAGCCGCATAGAAGTTATTAAGGCATGAATAATCCCTCAATATAAATATCTCTCACTTATTTAAA”: the “cleaved RNA product abundance” value is, setting by setting: under setting [2], 0.0988; under setting [1], 0.13. As to “ACAGACGAAGGAGCCGCATAGAAGTTATTAAGGGAAGAATAATCCCTCAATATAAATATCTCTCACTTATTTAAA”, under setting [1], the “cleaved RNA product abundance” value is 0.6. “ACAGACGAAGGAGCCGCATAGAAGTTATTAAGGGATAAATAATCCCTCAATATAAATATCTCTCACTTATTTAAA”: the “cleaved RNA product abundance” value was 1.03 under setting [2] and 0.861 under setting [1].

On to “ACAGACGAAGGAGCCGCATAGAAGTTATTAAGGGATCAATAATCCCTCAATATAAATATCTCTCACTTATTTAAA”, for which the “cleaved RNA product abundance” value under setting [1] amounted to 1.04. The same measure, in the same setting: under “ACAGACGAAGGAGCCGCATAGAAGTTATTAAGGGATGAAGAATCCCTCAATATAAATATCTCTCACTTATTTAAA” stands 0.861. Regarding “ACAGACGAAGGAGCCGCATAGAAGTTATTAAGGGATGAATAAACCCTCAATATAAATATCTCTCACTTATTTAAA”, the “cleaved RNA product abundance” value under setting [2] was 0.448 and the “cleaved RNA product abundance” value under setting [1] came to 0.471. As to “ACAGACGAAGGAGCCGCATAGAAGTTATTAAGGGATGAATAACCCCTCAATATAAATATCTCTCACTTATTTAAA”, the “cleaved RNA product abundance” value under setting [2] amounted to 0.457. On to “ACAGACGAAGGAGCCGCATAGAAGTTATTAAGGGATGAATAAGCCCTCAATATAAATATCTCTCACTTATTTAAA”, for which, under setting [1], the “cleaved RNA product abundance” value worked out at 0.32. Turning to “ACAGACGAAGGAGCCGCATAGAAGTTATTAAGGGATGAATAATACCTCAATATAAATATCTCTCACTTATTTAAA”, the “cleaved RNA product abundance” value by setting is: under setting [2], 0.115; under setting [1], 0.179. “ACAGACGAAGGAGCCGCATAGAAGTTATTAAGGGATGAATAATCACTCAATATAAATATCTCTCACTTATTTAAA”: the “cleaved RNA product abundance” value by setting is: under setting [2], 0.134; under setting [1], 0.166. Taken in the same sequence, the figures for “ACAGACGAAGGAGCCGCATAGAAGTTATTAAGGGATGAATAATCCATCAATATAAATATCTCTCACTTATTTAAA” were 0.112 and 0.245.

As to “ACAGACGAAGGAGCCGCATAGAAGTTATTAAGGGATGAATAATCCCACAATATAAATATCTCTCACTTATTTAAA”, the “cleaved RNA product abundance” value under setting [1] came out at 0.292. For “ACAGACGAAGGAGCCGCATAGAAGTTATTAAGGGATGAATAATCCCCCAATATAAATATCTCTCACTTATTTAAA”, the “cleaved RNA product abundance” value is 0.247 under setting [2] and 0.319 under setting [1].

Take “ACAGACGAAGGAGCCGCATAGAAGTTATTAAGGGATGAATAATCCCTAAATATAAATATCTCTCACTTATTTAAA”: the “cleaved RNA product abundance” value under setting [1] was determined as 0.658. As for “ACAGACGAAGGAGCCGCATAGAAGTTATTAAGGGATGAATAATCCCTCAACATAAATATCTCTCACTTATTTAAA”, under setting [1], the “cleaved RNA product abundance” value stood at 0.317. On the same count and under the same terms, the result for “ACAGACGAAGGAGCCGCATAGAAGTTATTAAGGGATGAATAATCCCTCAATAGAAATATCTCTCACTTATTTAAA” reads 0.149. The same measure, in the same setting: the result for “ACAGACGAAGGAGCCGCATAGAAGTTATTAAGGGATGAATAATCCCTCAATATAAACATCTCTCACTTATTTAAA” reads 1.

As for “ACAGACGAAGGAGCCGCATAGAAGTTATTAAGGGATGAATAATCCCTCAATATAAATATCTCTCACTTATTTAAA”, the “cleaved RNA product abundance” value runs as follows: under setting [2], 1; under setting [1], 1.01; (experiment (reporter, strain, medium): exp 6: tetM reporter, strain 168) 1.06. Regarding “ACAGACGAAGGAGCCGCATAGAAGTTATTAAGGGATGAATAATCCCTCAATATAAATTTCTCTCACTTATTTAAA”, the “cleaved RNA product abundance” value under setting [1] worked out at 0.644. “ACAGACGAAGGAGCCGCATAGAAGTTATTAAGGGATGAATAATCCCTCAATATTAATATCTCTCACTTATTTAAA”: the “cleaved RNA product abundance” value under setting [1] was 0.121. In the case of “ACAGACGAAGGAGCCGCATAGAAGTTATTAAGGGATGAATAATCCCTCAATTTAAATATCTCTCACTTATTTAAA”, the “cleaved RNA product abundance” value under setting [2] was 0.195.

Regarding “ACAGACGAAGGAGCCGCATAGAAGTTATTAAGGGATGAATAATCCCTCACTATAAATATCTCTCACTTATTTAAA”, the “cleaved RNA product abundance” value under setting [1] was 0.24. Same read-out and setting: under “ACAGACGAAGGAGCCGCATAGAAGTTATTAAGGGATGAATAATCCCTCATTATAAATATCTCTCACTTATTTAAA” stands 0.41; under “ACAGACGAAGGAGCCGCATAGAAGTTATTAAGGGATGAATAATCCCTCCATATAAATATCTCTCACTTATTTAAA”, 0.24; under “ACAGACGAAGGAGCCGCATAGAAGTTATTAAGGGATGAATAATCCCTGAATATAAATATCTCTCACTTATTTAAA”, 0.679. “ACAGACGAAGGAGCCGCATAGAAGTTATTAAGGGATGAATAATCCCTTAATATAAATATCTCTCACTTATTTAAA”: the “cleaved RNA product abundance” value under setting [2] was 1.12 and the “cleaved RNA product abundance” value under setting [1] stood at 0.448. Turning to “ACAGACGAAGGAGCCGCATAGAAGTTATTAAGGGATGAATAATCCGTCAATATAAATATCTCTCACTTATTTAAA”, under setting [1], the “cleaved RNA product abundance” value was 0.235. On to “ACAGACGAAGGAGCCGCATAGAAGTTATTAAGGGATGAATAATCCTTCAATATAAATATCTCTCACTTATTTAAA”, for which the “cleaved RNA product abundance” value under setting [2] came to 0.516 and the “cleaved RNA product abundance” value under setting [1] turned out to be 0.54. In the case of “ACAGACGAAGGAGCCGCATAGAAGTTATTAAGGGATGAATAATCGCTCAATATAAATATCTCTCACTTATTTAAA”, the “cleaved RNA product abundance” value under setting [1] was 0.141. “ACAGACGAAGGAGCCGCATAGAAGTTATTAAGGGATGAATAATCTCTCAATATAAATATCTCTCACTTATTTAAA”: the “cleaved RNA product abundance” value under setting [2] amounted to 1.08. Take “ACAGACGAAGGAGCCGCATAGAAGTTATTAAGGGATGAATAATGCCTCAATATAAATATCTCTCACTTATTTAAA”: the “cleaved RNA product abundance” value under setting [1] came to 0.141. Same read-out and setting: under “ACAGACGAAGGAGCCGCATAGAAGTTATTAAGGGATGAATACTCCCTCAATATAAATATCTCTCACTTATTTAAA” stands 0.618; under “ACAGACGAAGGAGCCGCATAGAAGTTATTAAGGGATGACTAATCCCTCAATATAAATATCTCTCACTTATTTAAA”, 0.679. The same measure, in the same setting: under “ACAGACGAAGGAGCCGCATAGAAGTTATTAAGGGATGCATAATCCCTCAATATAAATATCTCTCACTTATTTAAA” stands 0.933. In the case of “ACAGACGAAGGAGCCGCATAGAAGTTATTAAGGGATTAATAATCCCTCAATATAAATATCTCTCACTTATTTAAA”, the “cleaved RNA product abundance” value by setting is: under setting [2], 1; under setting [1], 1.38. On to “ACAGACGAAGGAGCCGCATAGAAGTTATTAAGGGTTGAATAATCCCTCAATATAAATATCTCTCACTTATTTAAA”, for which the “cleaved RNA product abundance” value under setting [2] came to 0.498 and the “cleaved RNA product abundance” value under setting [1] was 0.41. Consider “ACAGACGAAGGAGCCGCATAGAAGTTATTAAGGTATGAATAATCCCTCAATATAAATATCTCTCACTTATTTAAA”, for which the “cleaved RNA product abundance” value under setting [1] was found to be 0.159.
